Data from the Human Domainome abundance scans (Beltran et al. 2025).
± gives the uncertainty stated by the source.

B1: POU domain, class 2, transcription factor 1, residues 285 to 354; numbered along this chain, P14859 (parent)
chain: LEELEQFAKTFKQRRIKLGFTQGDVGLAMGKLYGNDFSQTTISRFEALNLSFKNMCKLKPLLEKWLNDAE

Variants of: B1
Assay: abundance fitness (aPCA) (normalised: wild type 0, dead -1); higher = more abundant; growth selection in yeast, the domain comes from the species named
Details: Homo sapiens

Variant	abundance fitness
K59P	-0.72 ± 0.027
K59L	-0.06 ± 0.023
K59N	-0.311 ± 0.054
K59D	-0.672 ± 0.084
K59Q	-0.037 ± 0.045
K59W	-0.026 ± 0.044
K59G	-0.175 ± 0.029
Q39A	0.015 ± 0.02
Q39I	-0.057 ± 0.062
Q39C	-0.037 ± 0.048
Q39H	0.028 ± 0.039
M55G	-0.068 ± 0.043
M55S	-0.1 ± 0.024
M55H	-0.247 ± 0.033
M55V	-0.167 ± 0.041
A28H	-0.059 ± 0.04
A28D	-0.079 ± 0.11
A28K	-0.008 ± 0.033
A28I	-0.054 ± 0.024
L1Y	0.13 ± 0.15
L1A	-0.201 ± 0.22

Variant	abundance fitness
L1C	-0.065 ± 0.34
L62G	-0.545 ± 0.067
L62M	-0.006 ± 0.024
L62C	-0.18 ± 0.14
L62Q	-0.913 ± 0.069
S51R	-0.056 ± 0.02
S51T	-0.035 ± 0.028
S51L	-0.579 ± 0.026
S51G	0.028 ± 0.021
E3Y	-0.186 ± 0.047
E3T	-0.146 ± 0.031
E3A	-0.143 ± 0.05
E3M	-0.089 ± 0.027
I16M	0.004 ± 0.021
I16L	-0.007 ± 0.017
I16T	-0.03 ± 0.049
N35S	-0.038 ± 0.086
N35G	0.053 ± 0.021
L27Y	-0.113 ± 0.058
L27F	0.01 ± 0.038
L27M	0 ± 0.035

Variant	abundance fitness
S38D	0.048 ± 0.1
S38G	0.023 ± 0.028
S38Y	-0.271 ± 0.23
S38E	-0.03 ± 0.037
L18R	-0.143 ± 0.072
L18C	-0.1 ± 0.066
F37D	0.006 ± 0.14
K53C	0.015 ± 0.03
K53E	0.039 ± 0.053
K53I	0.089 ± 0.14
K53L	0.008 ± 0.035
K53F	0.041 ± 0.066
K64R	-0.019 ± 0.028
K64C	-0.143 ± 0.068
K64P	-0.387 ± 0.036
K64G	-0.026 ± 0.03
K64H	-0.1 ± 0.058
K64Q	-0.011 ± 0.037
F11Y	-0.238 ± 0.12
F11Q	-1.11 ± 0.16
F11W	-0.105 ± 0.027

Variant	abundance fitness
F11D	-1.19 ± 0.48
F11M	-0.166 ± 0.037
F11R	-0.955 ± 0.042
N49W	-0.218 ± 0.047
N49C	-0.086 ± 0.1
N49T	0.03 ± 0.029
N49E	0.043 ± 0.045
N49H	-0.063 ± 0.074
N49L	-0.029 ± 0.021
E70G	-0.13 ± 0.26
E70P	-0.349 ± 0.23
E70I	-0.048 ± 0.16
N54G	-0.018 ± 0.022
N54H	0.004 ± 0.09
N54V	0.006 ± 0.023
N54P	-0.135 ± 0.028
L48A	-0.054 ± 0.081
L48V	-0.085 ± 0.074
L48W	-0.142 ± 0.065
L48Q	0.006 ± 0.031
P60L	-0.074 ± 0.022
